Positions count from the first letter of the chain named. Numbers in names are those of the source.
B1: LexA fused to SID 1-27 (other)
chain: MKALTARQQEVFDLIRDHISQTGMPPTRAEIAQRLGFRSPNAAEEHLKALARKGVIEIVSGASRGIRLLQEEEEGLPLVGRVAAGEPLLAQQHIEGHYQVDPSLFKPNADFLLRVSGMSMKDIGIMDGDLLAVHKTQDVRNGQVVVARIDDEVTVKRLKKQGNKVELLPENSEFKPIVVDLRQQSFTIEGLAVGVIRNGDWLMAAAVRMNIQMLLEAADYLERREREAE
notes: Carboxyl-terminal deletion of 30 amino acids from SID 1-57
B2: VP16PAH2 (amino acids 251-404 of mSin3A encoding the PAH2 domain fused to the VP16 activation domain) (other)
chain: SKPSQLQAHTPASQQTPPLPPYASPRSPPVQPHTPVTISLGTAPSLQNNQPVEFNHAINYVNKIKNRFQGQPDIYKAFLEILHTYQKEQRNAKEAGGNYTPALTEQEVYAQVARLFKNQEDLLSEFGQFLPDANSSVLLSKTTAEKVDSVRNDH
notes: range 251-404; Prey of the directed two-hybrid assay in S. cerevisiae L40
B3: Mad1(L12P/A16P)His (other, human, UniProt Q05195 1-221, looked up)
chain: MAAAVRMNIQMPLEAPDYLERREREAEHGYASMLPYNNKDRDALKRRNKSKKNNSSSRSTHNEMEKNRRAHLRLCLEKLKGLVPLGPESSRHTTLSLLTKAKLHIKKLEDCDRKAVHQIDQLQREQRHLKRQLEKLGIERIRMDSIGSTVSSERSDSDREEIDVDVESTDYLTGDLDWSSSSVSDSDERGSMQSLGSDEGYSSTSIKRIKLQDSHKACLGL
modifications: 35S-methionine labelled (in vitro translated)
notes: Mutant Mad1 probe in the far Western blot; not shown: polyhistidine tag fused to the carboxyl terminus
B4: Mad1: bHLHZip transcriptional repressor protein of the Mad family (protein)
chain: B3 chain with P12L, P16A
modifications: left off: small tags and cut ends
notes: bHLHZip transcriptional repressor protein of the Mad family
B5: Mad1His: in vitro translated 35S-labeled Mad1 with a polyhistidine tag fused to its carboxyl terminus (protein)
chain: B3 chain with P12L, P16A
modifications: left off: small tags and cut ends
notes: in vitro translated 35S-labeled Mad1 with a polyhistidine tag fused to its carboxyl terminus
B6: Mad1(L12P/A16P)His: polyhistidine-tagged mutant Mad1 protein with L12P/A16P point mutations in the SID (protein)
chain: B3 chain
modifications: left off: small tags and cut ends
notes: polyhistidine-tagged mutant Mad1 protein with L12P/A16P point mutations in the SID

Legend:
[1] = target: mSin3-HDAC corepressor complex; assay: cell-based or functional assay
[2] = target: B2; assay: directed yeast two-hybrid assay (LexA-SID with VP16PAH2, beta-galactosidase)
[3] = target: T1, LexA fused to amino acids 8-20 of wildtype Mad1 (bacterial; human, UniProt P0A7C2 1-202); assay: as above
T1 construct: also called SID 8-20; minimal SID
T1 sequence: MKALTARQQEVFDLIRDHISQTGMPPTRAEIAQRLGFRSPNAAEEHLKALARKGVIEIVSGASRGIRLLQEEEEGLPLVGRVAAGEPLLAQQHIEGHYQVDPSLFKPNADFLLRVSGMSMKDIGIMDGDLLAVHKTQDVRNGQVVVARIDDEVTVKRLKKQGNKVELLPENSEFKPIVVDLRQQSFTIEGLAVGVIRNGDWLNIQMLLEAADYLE

[4] = target: T2, LexA fused to amino acids 1-57 of Mad1 (bacterial; human, UniProt P0A7C2 1-202; Q05195 1-57); assay: as above
T2 construct: also called SID 1-57
T2 sequence: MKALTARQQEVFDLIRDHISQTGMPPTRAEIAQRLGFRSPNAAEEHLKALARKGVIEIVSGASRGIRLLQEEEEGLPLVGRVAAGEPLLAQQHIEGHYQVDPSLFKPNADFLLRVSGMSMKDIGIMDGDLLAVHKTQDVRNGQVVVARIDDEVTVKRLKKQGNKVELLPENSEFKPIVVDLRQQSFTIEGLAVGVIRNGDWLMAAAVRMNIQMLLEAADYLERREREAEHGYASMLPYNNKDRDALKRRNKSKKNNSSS

[5] = target: T3, GST-PAH2, a GST fusion to the PAH2 domain of mSIN3A (UniProt P08515 1-218 = GST; Q60520 300-383); assay: far Western blot, probe purified under native conditions
T3 construct: Expressed in bacteria, resolved by SDS-PAGE and immobilised on PVDF membrane
Method: Recombinant GST and GST-PAH2 were expressed in bacteria and purified on glutathione-Sepharose 4B (Amersham Pharmacia Biotech). […] The blots were blocked in far Western Buffer (PBS containing 0.1% Nonidet P-40, 1 mM EDTA, and 1 mM dithiothreitol) containing 5% nonfat dry milk for 1 h at 4° C. Purified probes were added to blots in 5 ml of far Western buffer containing 1% nonfat dry milk and incubated together at 4° C. overnight with rocking. Following washing with far Western buffer, the blots were air-dried and exposed 48 h for autoradiography.

[6] = target: T4, PAH1 domain of mSin3A (Mus musculus, UniProt Q60520); settings: Ayer et al., Cell 80:767-776 (1995); cited from earlier work
T4 sequence (Q60520 119-189 limits assumed): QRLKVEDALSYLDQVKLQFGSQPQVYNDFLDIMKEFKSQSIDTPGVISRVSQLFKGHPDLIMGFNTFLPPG

[7] = target: T5, PAH3 domain of mSin3A (Mus musculus, UniProt Q60520); settings: Ayer et al., Cell 80:767-776 (1995); cited from earlier work
T5 sequence (Q60520 457-526 limits assumed): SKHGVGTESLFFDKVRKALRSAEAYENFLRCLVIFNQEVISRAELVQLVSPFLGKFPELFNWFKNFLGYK

[8] = test system: PAH4 domain of mSin3A; settings: Ayer et al., Cell 80:767-776 (1995); cited from earlier work
[9] = target: T6, PAH2 domain of mSin3A (GST-PAH2) (Mus musculus, UniProt Q60520); assay: Far Western blot, 35S-labeled Mad1 probes on immobilized GST-PAH2; type: binding, mammalian
T6 construct: GST-PAH2, a GST fusion to the PAH2 domain of mSIN3A; made in house; host or cells: bacteria
T6 sequence (Q60520 300-383 limits assumed): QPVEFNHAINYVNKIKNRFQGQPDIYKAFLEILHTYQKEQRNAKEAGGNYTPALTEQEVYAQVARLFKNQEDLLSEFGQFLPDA
Method: (§1) Far Western Blotting—Mad1His and Mad1(L12P/A16P)His (Ayer et al., Cell 80:767-776 (1995)), which have a polyhistidine tag fused to their carboxyl termini, were translated in vitro in 50 μl reactions using the TNT coupled reticulocyte lysate system (Promega) and ^35[S]methionine (NEN Life Science Products) and were purified under native or denaturing conditions. Ni^2+-NTA agarose (Qiagen) was blocked with rabbit reticuocyte lysate (diluted 1:3 in PBS) for 30 min at 4° C. and then incubated with the in vitro synthesized Mad1His and Mad1(L12P/A16P)His for 30 min at 4° C. in PBS native or 6 M guanidine hydrochloride, 0.1 M NaH2PO4, and 0.01 M Tris, pH 8.0 (denaturating conditions) followed by extensive washing with the same buffers. The bound proteins were eluted in PBS containing 0.5 M imidazole and then dialyzed overnight against PBS to remove the imidazole and allow for renaturation. Recombinant GST and GST-PAH2 were expressed in bacteria and purified on glutathione-Sepharose 4B (Amersham Pharmacia Biotech). The blots were prepared by resolving 1 μg of GST-PAH2 on 15% SDS-PAGE, followed by transfer to PVDF membrane. The blots were blocked in far Western Buffer (PBS containing 0.1% Nonidet P-40, 1 mM EDTA, and 1 mM dithiothreitol) containing 5% nonfat dry milk for 1 h at 4° C. Purified probes were added to blots in 5 ml of far Western buffer containing 1% nonfat dry milk and incubated together at 4° C. overnight with rocking. Following washing with far Western buffer, the blots were air-dried and exposed 48 h for autoradiography.
To determine whether the interaction between Mad1 and mSin3A is direct, we used far Western blot assays. In these experiments GST-PAH2, a GST fusion to the PAH2 domain of mSIN3A, and GST alone were resolved by SDS-PAGE followed by transfer to a PVDF membrane. […] Equal efficiency of transcription and translation of these proteins was confirmed by SDS-PAGE followed by autoradiography to detect the proteins (data not shown). These protein probes were purified on Ni^2+-NTA agarose under native or denaturing conditions. […]

[10] = target: T7, GST (Schistosoma japonicum, UniProt P08515); assay: Far Western blot, 35S-labeled Mad1 probes on immobilized GST alone; type: binding; settings: probe purified under denaturing conditions
T7 construct: made in house; host or cells: bacteria
Method: as §1, with “Purified probes were added to blots in 5 ml of far Western buffer containing 1% nonfat dry milk and incubated together at 4° C. overnight with rocking. Following washing with far Western buffer, the blots were air-dried and exposed 48 h for autoradiography.” left out

[11] = probe purified under denaturing conditions and renatured

T7 sequence (P08515 whole entry): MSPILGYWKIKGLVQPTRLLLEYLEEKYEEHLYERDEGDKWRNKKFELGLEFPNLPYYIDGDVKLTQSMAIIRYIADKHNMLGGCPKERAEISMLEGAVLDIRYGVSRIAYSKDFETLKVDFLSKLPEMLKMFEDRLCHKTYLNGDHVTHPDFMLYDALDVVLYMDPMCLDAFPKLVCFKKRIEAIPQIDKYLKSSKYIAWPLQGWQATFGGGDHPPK
Sequence of PAH4 domain of mSin3A (Q60520 889-968 limits assumed): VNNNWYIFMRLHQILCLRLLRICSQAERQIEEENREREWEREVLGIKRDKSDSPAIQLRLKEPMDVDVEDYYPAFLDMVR

For “fusion between the first 35 amino acids of Mad1 and the GALDBD (from UniProt P04386 1-147; Q05195 1-35)”, the repression of a GAL4 DNA binding domain-responsive luciferase reporter in 293 cells [1] was 7 fold.

In the case of B1, the “fold better binding than SID 1-57 (relative beta-galactosidase activity)” value [2] is reported as ~2 fold.

B2: binds [3]; binds [4].

B3: no binding [5].

For B4, the “interaction with PAH1” value [6] is listed as “no interaction is detected”, the “interaction with PAH3” value [7] is listed as “no interaction is detected” and the “interaction with PAH4” value [8] is listed as “no interaction is detected”.

With B5 the “interaction with GST-PAH2” value [9, 11] was “also interacted with GST-PAH2”, the “interaction with GST-PAH2” value ([9]; probe purified under native conditions) was “able to interact” and the “interaction with GST alone” value [10] was “not with GST alone”.

In the case of B6, the “interaction with GST-PAH2” value [9, 11] is reported as “did not interact” and the “interaction with GST alone” value [10] is reported as “did not interact”.

Source: patent US6528620B1, “Sid-polyamide fusions: a potent method of regulating gene expression” (University of Utah Research Foundation, priority 1999, dated 2003)
